Measurements reported in patent US20030236197A1 (PRAECIS PHARMACEUTICALS, published 2003).
Square brackets hold non-standard residues; d marks the D form. Ends that are not written are not given here. * marks the point of attachment. dPhe(F5) = N[C@H](Cc1c(F)c(F)c(F)c(F)c1F)C(=O)O; dPhe(4-F) = N[C@H](Cc1ccc(F)cc1)C(=O)O; NHiPr = CC(C)N*

B1: PPI-1125: 2 TFA • H-lvf-NH-NH-fvl-H (peptide)
peptide: H-[dL]-[dV]-[dF]
modifications: also: dimer: C-termini of two tripeptides joined through hydrazine (-NH-NH-), 2 TFA salt
B2: PPI-970: TFA • N-isopropyl-(Gaffvl)-NH2 (peptide)
peptide: G[dA][dF][dF][dV][dL]-NH2
modifications: not fully specified (N-terminus); printed as N-isopropyl-(Gly-D-Ala-D-Phe-D-Phe-D-Val-D-Leu)-NH2; also: TFA salt

Legend:
[1] = target: T1, Aβ1-40 peptide (monomeric start material of the nucleation assay); assay: cell-based or functional assay
[2] = target: T1, Aβ1-40 peptide (monomeric start …); assay: cell-based or functional assay; remark: listed apart in the source

Binder | Nucleation assay Δ lag at 1.25 µM compound [2] | Nucleation assay Δ lag at 2.5 µM compound [2] | Nucleation assay Δ lag at 5 µM compound [2] | other results
B1 |  |  |  | Nucleation assay data (Δ lag) at 0.6 µM compound (row marked *: measured at 2.5, 1.25 and 0.6 µM) [1]: 2 ratio of lag time to control; Nucleation assay data (Δ lag) at 1.25 µM compound (row marked *: measured at 2.5, 1.25 and 0.6 µM) [1]: > 2.5 ratio of lag time to control; Nucleation assay data (Δ lag) at 2.5 µM compound (row marked *: measured at 2.5, 1.25 and 0.6 µM) [1]: > 2.5 ratio of lag time to control
{N‑methyl}-G[dA][dF][dF][dV][dL]-NH2 (also: TFA salt) [PPI-968: TFA • N-methyl-(Gaffvl)-NH2] | 2 ratio of lag time to control | > 5 ratio of lag time to control | > 5 ratio of lag time to control | 
H-[dL][dV][dF][dF][dA]-NMe2 (also: TFA salt) [PPI-993: TFA • H-(lvffa)-dimethylamide] | 1 ratio of lag time to control | 1 ratio of lag time to control | 1 ratio of lag time to control | 
H-[dL][dF][dPhe(F5)][dV][dL]-NH2 (also: TFA salt) [PPI-1320: TFA • H-(lf-[F5]f-vl)-NH2] |  |  |  | Nucleation assay data (Δ lag) at 0.3 µM compound [1]: 1 ratio of lag time to control; Nucleation assay data (Δ lag) at 1 µM compound [1]: 3 ratio of lag time to control; Nucleation assay data (Δ lag) at 3 µM compound [1]: > 5 ratio of lag time to control
H-[dL][dV][dF][dF][dA]-NHiPr (also: TFA salt) [PPI-992: TFA • H-(lvffa)-isopropylamide] | 1 ratio of lag time to control | 1 ratio of lag time to control | 3 ratio of lag time to control | 
{N,N‑dimethyl}-[dL][dV][dF][dF][dL]-NH2 (also: TFA salt) [PPI-1007: TFA • N,N-dimethyl-(lvffl)-NH2] |  |  |  | Nucleation assay Δ lag at 0.3 µM compound (row marked *: measured at 3, 1 and 0.3 µM) [2]: 3 ratio of lag time to control; Nucleation assay Δ lag at 0.6 µM compound (row marked #: measured at 2.5, 1.25 and 0.6 µM) [2]: 1.5 ratio of lag time to control; Nucleation assay Δ lag at 1 µM compound (row marked *: measured at 3, 1 and 0.3 µM) [2]: 4 ratio of lag time to control; Nucleation assay Δ lag at 1.25 µM compound (row marked #: measured at 2.5, 1.25 and 0.6 µM) [2]: 1.5 ratio of lag time to control; Nucleation assay Δ lag at 2.5 µM compound (row marked #: measured at 2.5, 1.25 and 0.6 µM) [2]: 1.5 ratio of lag time to control; Nucleation assay Δ lag at 3 µM compound (row marked *: measured at 3, 1 and 0.3 µM) [2]: 4 ratio of lag time to control
{N‑methyl}-[dL][dV][dF][dF][dL]-NH2 (also: TFA salt) [PPI-1019: TFA • N-methyl-(lvffl)-NH2] |  |  |  | Nucleation assay data (Δ lag) at 0.6 µM compound (row marked *: measured at 2.5, 1.25 and 0.6 µM) [1]: 2 ratio of lag time to control; Nucleation assay data (Δ lag) at 1.25 µM compound (row marked *: measured at 2.5, 1.25 and 0.6 µM) [1]: > 2.5 ratio of lag time to control; Nucleation assay data (Δ lag) at 2.5 µM compound (row marked *: measured at 2.5, 1.25 and 0.6 µM) [1]: > 2.5 ratio of lag time to control
{N,N‑dimethyl}-G[dA][dF][dF][dV][dL]-NH2 (also: TFA salt) [PPI-803: TFA • N,N-dimethyl-(Gaffvl)-NH2] | < 1 ratio of lag time to control | < 1 ratio of lag time to control | < 1 ratio of lag time to control | 
H-[dL][dF][dK][dV][dL]-NH2 (also: 2 TFA salt) [PPI-1321: 2TFA • H-(lfkvl)-NH2] |  |  |  | Nucleation assay data (Δ lag) at 0.3 µM compound [1]: < 1 ratio of lag time to control; Nucleation assay data (Δ lag) at 1 µM compound [1]: < 1 ratio of lag time to control; Nucleation assay data (Δ lag) at 3 µM compound [1]: < 1 ratio of lag time to control
{N,N‑dimethyl}-[dA][dF][dF][dV][dL]-NH2 (also: TFA salt) [PPI-913: TFA • N,N-dimethyl-(affvl)-NH2] | 1 ratio of lag time to control | 1 ratio of lag time to control | 1 ratio of lag time to control | 
H-[dL][dF][dPhe(4-F)][dV][dL]-NH2 (also: TFA salt) [PPI-1319: TFA • H-(lf-[p-F]f-vl)-NH2] |  |  |  | Nucleation assay data (Δ lag) at 0.3 µM compound [1]: 1 ratio of lag time to control; Nucleation assay data (Δ lag) at 1 µM compound [1]: > 5 ratio of lag time to control; Nucleation assay data (Δ lag) at 3 µM compound [1]: > 5 ratio of lag time to control
{N,N‑diethyl}-G[dA][dF][dF][dV][dL]-NH2 (also: TFA salt) [PPI-1005: TFA • N,N-diethyl-(Gaffvl)-NH2] | 1 ratio of lag time to control | 3 ratio of lag time to control | 3 ratio of lag time to control | 
{N,N‑diethyl}-[dA][dF][dF][dV][dL]-NH2 (also: TFA salt) [PPI-1006: TFA • N,N-diethyl-(affvl)-NH2] | 1 ratio of lag time to control | 1 ratio of lag time to control | 1 ratio of lag time to control | 
B2 | 1 ratio of lag time to control | > 5 ratio of lag time to control | > 5 ratio of lag time to control | 
